Measured values: patent publication US20240376225A1 (CHILDREN S MEDICAL CENTER, published 2024)

Experiments:
[1] = target: cyno CD21 protein (cynomolgus monkey); assay: SPR (Biacore)
human CD21 protein = target: T1, human CD21 protein (human, UniProt P20023 21-971, limits assumed); assay: SPR (Biacore)
T1 construct: the Biacore set-up is not described; also called huCD21; CR2
T1 sequence (looked up): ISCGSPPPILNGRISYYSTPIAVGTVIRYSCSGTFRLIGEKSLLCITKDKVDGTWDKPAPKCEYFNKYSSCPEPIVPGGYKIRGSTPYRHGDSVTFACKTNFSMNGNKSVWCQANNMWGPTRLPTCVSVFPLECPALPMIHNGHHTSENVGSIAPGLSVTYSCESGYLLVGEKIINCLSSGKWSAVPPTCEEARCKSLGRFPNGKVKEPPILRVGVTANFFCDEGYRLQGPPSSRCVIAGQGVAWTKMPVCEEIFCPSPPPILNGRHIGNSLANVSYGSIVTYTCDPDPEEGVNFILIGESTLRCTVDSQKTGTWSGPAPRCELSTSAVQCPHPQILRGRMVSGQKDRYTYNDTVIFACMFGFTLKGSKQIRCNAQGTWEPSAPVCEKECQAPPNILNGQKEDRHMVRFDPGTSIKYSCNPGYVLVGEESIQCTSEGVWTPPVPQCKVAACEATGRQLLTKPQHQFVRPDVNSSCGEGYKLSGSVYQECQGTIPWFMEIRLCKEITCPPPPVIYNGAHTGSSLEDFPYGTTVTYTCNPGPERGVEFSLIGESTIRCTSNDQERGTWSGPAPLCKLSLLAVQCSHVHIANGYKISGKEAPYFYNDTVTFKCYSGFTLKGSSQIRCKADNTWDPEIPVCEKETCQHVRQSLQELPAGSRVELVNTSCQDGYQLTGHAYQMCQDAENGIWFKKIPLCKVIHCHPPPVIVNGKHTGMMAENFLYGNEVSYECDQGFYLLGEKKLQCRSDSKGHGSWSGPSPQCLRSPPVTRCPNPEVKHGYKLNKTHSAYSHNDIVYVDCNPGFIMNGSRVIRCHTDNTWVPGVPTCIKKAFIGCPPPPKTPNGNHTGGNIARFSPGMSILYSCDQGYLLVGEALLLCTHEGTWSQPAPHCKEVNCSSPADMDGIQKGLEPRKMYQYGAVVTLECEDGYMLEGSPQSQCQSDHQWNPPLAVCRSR

B1: Ab15 (antibody, human IgG1, kappa, V domains shown)
VH: QVQLVQSGAEVKKPGSSVKVSCKASGGTFSSYAISWVRQAPGQGLEWMGRIIPILGIANYAQKFQGRVTITADKSTSTAYMELSSLRSEDTAVYYCAREDDSSGYYQDWGQGTLVTVSS
VL: EIVMTQSPATLSLSPGESATLSCRAGQSINSHLAWYQQKPGQSPSLLIYDASTRATGVPARFSGSGFGTEFTLTISSLQSEDFAVYFCQQYEYWYTFGQGTKLEIKR
notes: Tb-labeled in the HTRF assay; also called 36C01; SC38-36C01 (IgG1 version)
B1 was tested, and the Kd [1] was 5.77 nM and the Kd (human CD21 protein) was 15.6 nM.
